# Patent US20160046707A1 (EISAI R AND D MANAGEMENT, published 2016)
# Positions count from the first letter of the chain named.
# B1: humanized anti-human CCL20 antibody 36LK3/42HKK1 (antibody, human IgG1, kappa, V domains shown)
# VH: QVQLVQSGAEVKKPGASVKVSCKASGYTFTSYWMHWVRQAPGQGLEWMGLIDPSDKYTNYNQKFKGRVTMTRDTSTSTVYMELSSLRSEDTAVYYCARGNYGVDYGMDYWGQGTLVTVSS
# VL: DIQMTQSPSSLSASVGDRVTITCGASENIYGALNWYQRKPGKAPKLLIYGATNLADGVPSRFSGSGSGRDYTLTISSLQPEDFATYYCQNVLITPYTFGQGTKLEIKR
# B2: humanized anti-human CCL20 antibody 36LK3/42HKK3 (antibody, human IgG1, kappa, V domains shown)
# VH: B1 VH with R67K, V68A, M70L, R72V, V79A, A97T
# VL: B1 VL
# B3: humanized anti-human CCL20 antibody 36LK3/42HKK2 (antibody, human IgG1, kappa, V domains shown)
# VH: B1 VH with M70L, R72V, A97T
# VL: B1 VL
# B4: humanized anti-human CCL20 antibody 36LK3/36HC3 (antibody, human IgG1, kappa, V domains shown)
# VH: QVQLVQSGAEVKKPGASVKVSCKASGYTFTNYWMHWVKQAPGQGLEWIGVIDPSDSYTTYNQKFKGKATMTRDTSTSTVYMELSSLRSEDTAVYYCTRGNYGVDYAMDYWGQGTSVTVSS
# VL: B1 VL
# B5: humanized anti-human CCL20 antibody 36LC3/36HKK3 (antibody, human IgG1, kappa, V domains shown)
# VH: B4 VH with K38R, I48M, M70L, R72V, V79A, S115L
# VL: B1 VL with G24R, R38Q, D70Q, T72S, Q100G
# B6: humanized anti-human CCL20 antibody 36LK3/36HKK3 (antibody, human IgG1, kappa, V domains shown)
# VH: B4 VH with K38R, I48M, M70L, R72V, V79A, S115L
# VL: B1 VL
# B7: 36LC3/36HC3 (antibody, human IgG1, kappa, V domains shown)
# VH: B4 VH
# VL: B1 VL with G24R, R38Q, D70Q, T72S, Q100G
# Molecular target: T1, recombinant human CCL20 (R&D Systems, #360-MP-025/CF) (human, UniProt P78556 27-96)
# Assay: cell-based or functional assay
# T1 sequence (P78556 other isoform, or with tags, fused parts or gaps limits assumed): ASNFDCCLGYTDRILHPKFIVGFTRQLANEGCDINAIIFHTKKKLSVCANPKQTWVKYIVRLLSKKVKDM
IC50 of chemotaxis inhibition,IC50 of chemotaxis inhibition (block of heavy chains 36HKK1 to 36HKK3),"IC50 of chemotaxis inhibition (block of heavy chains 36HKK3, 36HC2, 36HC3)",Binder
1.36 nM,,,B1
1.47 nM,,,B2
1.66 nM,,,B3
1.13 nM,,,B4
1.26 nM,,,B5
,1.31 nM,1.21 nM,B6
1.33 nM,,,B7

# Molecular target: T1, recombinant human CCL20 (R&D Systems, …)
# Assay: cell-based or functional assay
# Remark: another data set of the same source
row,IC90 of chemotaxis inhibition,Binder
1,4.86 nM,B1
2,5.65 nM,B2
3,6.54 nM,B3
4,4.6 nM,B4
5,4.33 nM,B5
6,6.34 nM,B7

# Molecular target: T1, recombinant human CCL20 (R&D Systems, …)
# Assay: cell-based or functional assay
# Remark: another data set of the same source
row,IC95 of chemotaxis inhibition,Binder
1,9.02 nM,B1
2,10.8 nM,B2
3,15.3 nM,B3
4,8.38 nM,B4
5,9.75 nM,B5
